Data as given in patent US20250152746A1, “BASE EDITING OF ANGPTL3 AND METHODS OF USING SAME FOR TREATMENT OF DISEASE” (Verve Therapeutics, Inc., priority 2020, published 2025).
In the oligonucleotide strings, read from the 5' end, every base follows the letter of its sugar. An asterisk marks phosphorothioate; unmarked linkages are phosphodiester. Other units and linkages are bracketed, terminal groups are in braces. A string of capitals states the bases alone. m = 2'-O-methyl; r = 2'-OH (RNA)

B1: GA168: PCSK9 gRNA; protospacer CTTGGCGCAGCGGTGGAAGG (SEQ ID NO: 162) (nucleic acid)
guide: CUUGGCGCAGCGGUGGAAGGGUUUUAGAGCUAGAAAUAGCAAGUUAAAAUAAGGCUAGUCCGUUAUCAACUUGAAAAAGUGGCACCGAGUCGGUGCUUUU
modifications: sugars from the 5' end m3 r94 m3, linkages s3 o93 s3 (s phosphorothioate, o phosphodiester), T or U not given here
B2: GA169: PCSK9 gRNA; protospacer CGTGCGCAGGAGGACGAGGA (SEQ ID NO: 163) (nucleic acid)
guide: CGUGCGCAGGAGGACGAGGAGUUUUAGAGCUAGAAAUAGCAAGUUAAAAUAAGGCUAGUCCGUUAUCAACUUGAAAAAGUGGCACCGAGUCGGUGCUUUU
modifications: sugars from the 5' end m3 r94 m3, linkages s3 o93 s3 (s phosphorothioate, o phosphodiester), T or U not given here
B3: GA170: PCSK9 gRNA; protospacer CCAGGACCGCCTGGAGCTGA (SEQ ID NO: 164) (nucleic acid)
guide: CCAGGACCGCCUGGAGCUGAGUUUUAGAGCUAGAAAUAGCAAGUUAAAAUAAGGCUAGUCCGUUAUCAACUUGAAAAAGUGGCACCGAGUCGGUGCUUUU
modifications: sugars from the 5' end m3 r94 m3, linkages s3 o93 s3 (s phosphorothioate, o phosphodiester), T or U not given here
B4: GA171: PCSK9 gRNA; protospacer TCTTGGTGAGGTATCCCCGG (SEQ ID NO: 165) (nucleic acid)
guide: UCTTGGTGAGGTATCCCCGGGTTTTAGAGCTAGAAATAGCAAGTTAAAATAAGGCTAGTCCGTTATCAACTTGAAAAAGTGGCACCGAGTCGGTGCTTTT
modifications: 2'-O-methyl at 1, 2, other sugars, backbone and T or U not given here; further chemistry not fully specified
B5: GA172: PCSK9 gRNA; protospacer CAGTGCGCTCTGACTGCGAG (SEQ ID NO: 166) (nucleic acid)
guide: CAGUGCGCUCUGACUGCGAGGUUUUAGAGCUAGAAAUAGCAAGUUAAAAUAAGGCUAGUCCGUUAUCAACUUGAAAAAGUGGCACCGAGUCGGUGCUUUU
modifications: sugars from the 5' end m3 r94 m3, linkages s3 o93 s3 (s phosphorothioate, o phosphodiester), T or U not given here
B6: GA173: PCSK9 gRNA; protospacer CTTGGTGAGGTATCCCCGGC (SEQ ID NO: 167) (nucleic acid)
guide: CUUGGUGAGGUAUCCCCGGCGUUUUAGAGCUAGAAAUAGCAAGUUAAAAUAAGGCUAGUCCGUUAUCAACUUGAAAAAGUGGCACCGAGUCGGUGCUUUU
modifications: sugars from the 5' end m3 r94 m3, linkages s3 o93 s3 (s phosphorothioate, o phosphodiester), T or U not given here
B7: GA174: PCSK9 gRNA; protospacer GGATCTTGGTGAGGTATCCC (SEQ ID NO: 168) (nucleic acid)
guide: GGAUCUUGGUGAGGUAUCCCGUUUUAGAGCUAGAAAUAGCAAGUUAAAAUAAGGCUAGUCCGUUAUCAACUUGAAAAAGUGGCACCGAGUCGGUGCUUUU
modifications: sugars from the 5' end m3 r94 m3, linkages s3 o93 s3 (s phosphorothioate, o phosphodiester), T or U not given here
B8: GA175: PCSK9 gRNA; protospacer GAAGATGAGTGGCGACCTGC (SEQ ID NO: 169) (nucleic acid)
guide: GAAGAUGAGUGGCGACCUGCGUUUUAGAGCUAGAAAUAGCAAGUUAAAAUAAGGCUAGUCCGUUAUCAACUUGAAAAAGUGGCACCGAGUCGGUGCUUUU
modifications: sugars from the 5' end m3 r94 m3, linkages s3 o93 s3 (s phosphorothioate, o phosphodiester), T or U not given here
B9: GA176: PCSK9 gRNA; protospacer AGCACCACCACGTAGGTGCC (SEQ ID NO: 170) (nucleic acid)
guide: AGCACCACCACGUAGGUGCCGUUUUAGAGCUAGAAAUAGCAAGUUAAAAUAAGGCUAGUCCGUUAUCAACUUGAAAAAGUGGCACCGAGUCGGUGCUUUU
modifications: sugars from the 5' end m3 r94 m3, linkages s3 o93 s3 (s phosphorothioate, o phosphodiester), T or U not given here
B10: GA177: PCSK9 gRNA; protospacer GGTCGCCACTCATCTTCACC (SEQ ID NO: 171) (nucleic acid)
guide: GGUCGCCACUCAUCUUCACCGUUUUAGAGCUAGAAAUAGCAAGUUAAAAUAAGGCUAGUCCGUUAUCAACUUGAAAAAGUGGCACCGAGUCGGUGCUUUU
modifications: sugars from the 5' end m3 r94 m3, linkages s3 o93 s3 (s phosphorothioate, o phosphodiester), T or U not given here
B11: GA178: PCSK9 gRNA; protospacer CTCCTTCAGCACCACCACGT (SEQ ID NO: 172) (nucleic acid)
guide: mC*mU*mC*rCrUrUrCrArGrCrArCrCrArCrCrArCrGrUrGrUrUrUrUrArGrArGrCrUrArGrArArArUrArGrCrArArGrUrUrArArArArUrArArGrGrCrUrArGrUrCrCrGrUrUrArUrCrArArCrUrUrGrArArArArArGrUrGrGrCrArCrCrGrArGrUrCrGrGrUrGrCrU*mU*mU*mU
B12: GA179: PCSK9 gRNA; protospacer GAGTGGCGACCTGCTGGAGC (SEQ ID NO: 173) (nucleic acid)
guide: mG*mA*mG*rUrGrGrCrGrArCrCrUrGrCrUrGrGrArGrCrGrUrUrUrUrArGrArGrCrUrArGrArArArUrArGrCrArArGrUrUrArArArArUrArArGrGrCrUrArGrUrCrCrGrUrUrArUrCrArArCrUrUrGrArArArArArGrUrGrGrCrArCrCrGrArGrUrCrGrGrUrGrCrU*mU*mU*mU
B13: GA180: PCSK9 gRNA; protospacer GCGCACTGCCCGCCGCCTGC (SEQ ID NO: 174) (nucleic acid)
guide: mG*mC*mG*rCrArCrUrGrCrCrCrGrCrCrGrCrCrUrGrCrGrUrUrUrUrArGrArGrCrUrArGrArArArUrArGrCrArArGrUrUrArArArArUrArArGrGrCrUrArGrUrCrCrGrUrUrArUrCrArArCrUrUrGrArArArArArGrUrGrGrCrArCrCrGrArGrUrCrGrGrUrGrCrU*mU*mU*mU
B14: GA181: PCSK9 gRNA; protospacer GGCTTCCTGGTGAAGATGAG (SEQ ID NO: 175) (nucleic acid)
guide: mG*mG*mC*rUrUrCrCrUrGrGrUrGrArArGrArUrGrArGrGrUrUrUrUrArGrArGrCrUrArGrArArArUrArGrCrArArGrUrUrArArArArUrArArGrGrCrUrArGrUrCrCrGrUrUrArUrCrArArCrUrUrGrArArArArArGrUrGrGrCrArCrCrGrArGrUrCrGrGrUrGrCrU*mU*mU*mU

test system: PCSK9 gene; assay: PCSK9 gRNA/SpCas9 editing in primary cynomolgus hepatocytes (Tables 2, 22); type: cell-based, cynomolgus monkey; details: 100 ng/RNA/mL; SpCas9 mRNA MS002 1:1 by weight

Molecule	Cyno Primary Hepatocyte Editing % 100 [%]
B1	4.75
B2	3.45
B3	4.03
B4	1.29
B5	0.51
B6	2.06
B7	1.60
B8	1.45
B9	2.11
B10	0.38
B11	2.21
B12	1.06
B13	0.91
B14	3.66

same assay, conditions: 500 ng/RNA/mL; SpCas9 mRNA MS002 1:1 by weight

Molecule	Cyno Primary Hepatocyte Editing % 500 [%]
B1	15.90
B2	18.28
B3	11.48
B4	9.06
B5	2.11
B6	8.70
B7	4.88
B8	12.37
B9	8.11
B10	4.68
B11	5.78
B12	4.21
B13	2.45
B14	15.43

same assay, conditions: 2500 ng/RNA/mL; SpCas9 mRNA MS002 1:1 by weight

Molecule	Cyno Primary Hepatocyte Editing % 2500 [%]
B1	41.49
B2	42.38
B3	23.17
B4	27.79
B5	15.58
B6	35.03
B7	18.65
B8	44.77
B9	22.65
B10	15.91
B11	25.22
B12	12.94
B13	14.12
B14	45.12

test system: PCSK9 gene; assay: PCSK9 gRNA/SpCas9 editing in primary human hepatocytes (Tables 2, 4); type: cell-based; details: 100 ng/RNA/mL; SpCas9 mRNA MS002 1:1 by weight
Method in brief: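 Editing at the PCSK9 site quantified by NGS of PCR amplicons from genomic DNA. Input: SpCas9 mRNA with gRNA, 1:1 by weight, transfected into primary human hepatocytes at 2500, 500 or 100 ng RNA/mL (tracr-modified guides at 2500, 1250, 500, 250 ng/mL).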

Molecule	Human Primary Hepatocyte Editing % 100 [%]
B2	5.49
B3	2.9
B4	2.37
B5	0.32
B6	0.69
B7	1.18
B8	1.55
B9	0.36
B10	0.65
B11	1.26
B12	1.29
B13	0.22
B14	28.87

same assay, conditions: 500 ng/RNA/mL; SpCas9 mRNA MS002 1:1 by weight

Molecule	Human Primary Hepatocyte Editing % 500 [%]
B1	25.77
B2	15.15
B3	15.84
B4	9.38
B5	3.52
B6	3.94
B7	5.24
B8	7.53
B9	1.26
B10	2.67
B11	5.43
B12	6
B13	2.22

same assay, conditions: 2500 ng/RNA/mL; SpCas9 mRNA MS002 1:1 by weight

Molecule	Human Primary Hepatocyte Editing % 2500 [%]
B1	54.99
B2	46.65
B3	31.35
B4	31.75
B5	14.01
B6	23.38
B7	14.74
B8	24.81
B9	4.98
B10	12.57
B11	18.29
B12	21.87
B13	17.16
